US20230042176

Assays:
[1] = biological target: Flag-tagged BK (Flag-BK), overexpressed in HEK293 cells
[2] = biological target: BK, endogenous, in primary mouse cortical neurons, Q08460
BK, endogenous, in primary mouse cortical neurons, Q08460, sequence (Q08460 whole entry): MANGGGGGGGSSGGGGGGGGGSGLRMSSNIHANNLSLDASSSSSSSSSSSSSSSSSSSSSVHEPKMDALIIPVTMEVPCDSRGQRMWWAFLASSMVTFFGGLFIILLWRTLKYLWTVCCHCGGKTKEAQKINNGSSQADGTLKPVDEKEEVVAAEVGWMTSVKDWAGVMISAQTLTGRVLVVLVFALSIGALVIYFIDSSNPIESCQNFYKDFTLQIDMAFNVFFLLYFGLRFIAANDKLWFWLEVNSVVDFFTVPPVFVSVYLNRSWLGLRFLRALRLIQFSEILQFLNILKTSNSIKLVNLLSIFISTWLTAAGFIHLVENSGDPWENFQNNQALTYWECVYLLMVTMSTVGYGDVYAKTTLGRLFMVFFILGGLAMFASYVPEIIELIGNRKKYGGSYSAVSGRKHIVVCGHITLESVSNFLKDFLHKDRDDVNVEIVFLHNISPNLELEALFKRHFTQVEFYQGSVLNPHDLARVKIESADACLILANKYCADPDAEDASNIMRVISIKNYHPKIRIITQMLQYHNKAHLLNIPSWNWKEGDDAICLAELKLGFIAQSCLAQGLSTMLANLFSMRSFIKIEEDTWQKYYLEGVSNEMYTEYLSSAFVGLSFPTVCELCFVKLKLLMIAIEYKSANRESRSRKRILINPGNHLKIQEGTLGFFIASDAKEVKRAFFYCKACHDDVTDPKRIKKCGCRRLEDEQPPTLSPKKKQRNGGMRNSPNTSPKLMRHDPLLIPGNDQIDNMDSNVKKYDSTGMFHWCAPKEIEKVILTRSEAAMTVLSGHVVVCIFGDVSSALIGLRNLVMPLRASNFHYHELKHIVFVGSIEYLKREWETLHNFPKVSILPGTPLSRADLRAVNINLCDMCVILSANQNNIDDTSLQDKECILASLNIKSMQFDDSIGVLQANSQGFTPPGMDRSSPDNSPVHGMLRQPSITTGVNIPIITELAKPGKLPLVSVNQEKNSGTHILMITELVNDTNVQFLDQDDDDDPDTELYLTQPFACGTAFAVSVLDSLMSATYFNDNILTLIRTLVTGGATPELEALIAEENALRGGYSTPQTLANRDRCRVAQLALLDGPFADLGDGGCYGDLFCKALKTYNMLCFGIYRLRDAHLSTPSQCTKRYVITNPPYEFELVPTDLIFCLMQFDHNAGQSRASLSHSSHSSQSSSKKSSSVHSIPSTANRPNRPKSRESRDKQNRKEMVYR

Protein | in vitro ubiquitination assay (E1 Ube1, E2 UbcH5c, HA-Ub) [1] | endogenous BK ubiquitination (BK IP, ubiquitin antibody blot, primary mouse cortical neurons) [2]
UBE3A, recombinant, as used in the in vitro ubiquitination assay (ubiquitination kit K-230, Boston Biochem) (protein) MEKLHQCYWKSGEPQSDDIEASRMKRAAAKHLIERYYHQLTEGCGNEACTNEFCASCPTFLRMDNNAAAIKALELYKINAKLCDPHPSKKGASSAYLENSKGAPNNSCSEIKMNKKGARIDFKDVTYLTEEKVYEILELCREREDYSPLIRVIGRVFSSAEALVQSFRKVKQHTKEELKSLQAKDEDKDEDEKEKAACSAAAMEEDSEASSSRIGDSSQGDNNLQKLGPDDVSVDIDAIRRVYTRLLSNEKIETAFLNALVYLSPNVECDLTYHNVYSRDPNYLNLFIIVMENRNLHSPEYLEMALPLFCKAMSKLPLAAQGKLIRLWSKYNADQIRRMMETFQQLITYKVISNEFNSRNLVNDDDAIVAASKCLKMVYYANVVGGEVDTNHNEEDDEEPIPESSELTLQELLGEERRNKKGPRVDPLETELGVKTLDCRKPLIPFEEFINEPLNEVLEMDKDYTFFKVETENKFSFMTCPFILNAVTKNLGLYYDNRIRMYSERRITVLYSLVQGQQLNPYLRLKVRRDHIIDDALVRLEMIAMENPADLKKQLYVEFEGEQGVDEGGVSKEFFQLVVEEIFNPDIGMFTYDESTKLFWFNPSSFETEGQFTLIGIVLGLAIYNNCILDVHFPMVVYRKLMGKKGTFRDLGDSHPVLYQSLKDLLEYEGNVEDDMMITFQISQTDLFGNPMMYDLKENGDKIPITNENRKEFVNLYSDYILNKSVEKQFKAFRRGFHMVTNESPLKYLFRPEEIELLICGSRNLDFQALEETTEYDGGYTRDSVLIREFWEIVHSFTDEQKRLFLQFTTGTDRAPVGGLGKLKMIIAKNGPDTERLPTSHTCFNVLLLPEYSSKEKLKERLLKAITYAKGFGML | BK ubiquitination by UBE3A was further confirmed by an in vitro ubiquitination assay using recombinant proteins (FIG. 11C) | 
Ube3a, endogenous, in primary mouse cortical neurons (WT against Ube3a m-/p+ mice) (protein) MATACKRSPGESQSEDIEASRMKRAAAKHLIERYYHQLTEGCGNEACTNEFCASCPTFLRMDNNAAAIKALELYKINAKLCDPHPSKKGASSAYLENSKGASNNSEIKMNKKEGKDFKDVIYLTEEKVYEIYEFCRESEDYSPLIRVIGRIFSSAEALVLSFRKVKQHTKEELKSLQEKDEDKDEDEKEKAACSAAAMEEDSEASSSRMGDSSQGDNNVQKLGPDDVTVDIDAIRRVYSSLLANEKLETAFLNALVYLSPNVECDLTYHNVYTRDPNYLNLFIIVMENSNLHSPEYLEMALPLFCKAMCKLPLEAQGKLIRLWSKYSADQIRRMMETFQQLITYKVISNEFNSRNLVNDDDAIVAASKCLKMVYYANVVGGDVDTNHNEEDDEEPIPESSELTLQELLGDERRNKKGPRVDPLETELGVKTLDCRKPLISFEEFINEPLNDVLEMDKDYTFFKVETENKFSFMTCPFILNAVTKNLGLYYDNRIRMYSERRITVLYSLVQGQQLNPYLRLKVRRDHIIDDALVRLEMIAMENPADLKKQLYVEFEGEQGVDEGGVSKEFFQLVVEEIFNPDIGMFTYDEATKLFWFNPSSFETEGQFTLIGIVLGLAIYNNCILDVHFPMVVYRKLMGKKGTFRDLGDSHPVLYQSLKDLLEYEGSVEDDMMITFQISQTDLFGNPMMYDLKENGDKIPITNENRKEFVNLYSDYILNKSVEKQFKAFRRGFHMVTNESPLKYLFRPEEIELLICGSRNLDFQALEETTEYDGGYTRESVVIREFWEIVHSFTDEQKRLFLQFTTGTDRAPVGGLGKLKMIIAKNGPDTERLPTSHTCFNVLLLPEYSSKEKLKERLLKAITYAKGFGML |  | BK ubiquitination by UBE3A was further confirmed ... by assessing endogenous BK ubiquitination using mouse cortical neurons derived from either WT or Ube3a^m-/p+ mice (FIGS. 11D-11E)
